Measured values: article PMC12510807, “MUC1 drives ferroptosis resistance in ICC via Src‐mediated FSP1 deubiquitination and myristoylation” (Clinical and Translational Medicine, 2025)

Molecular target: T1, recombinant Src (UniProt P12931 1-536)
T1 construct: the printed kinase domain limits 249-536 fit the 536-residue human protein; the tag on Src may differ between the three pull-downs; also called purified Src; source: recombinant, purified
Experiment: pull-down; in vitro GST pull-down with recombinant or purified proteins; which partner bore GST is not told
Details: both partners purified

- binding result: binds
B1: purified NMT1 (enzyme, UniProt P30419 1-496, looked up)
chain: MADESETAVKPPAPPLPQMMEGNGNGHEHCSDCENEEDNSYNRGGLSPANDTGAKKKKKKQKKKKEKGSETDSAQDQPVKMNSLPAERIQEIQKAIELFSVGQGPAKTMEEASKRSYQFWDTQPVPKLGEVVNTHGPVEPDKDNIRQEPYTLPQGFTWDALDLGDRGVLKELYTLLNENYVEDDDNMFRFDYSPEFLLWALRPPGWLPQWHCGVRVVSSRKLVGFISAIPANIHIYDTEKKMVEINFLCVHKKLRSKRVAPVLIREITRRVHLEGIFQAVYTAGVVLPKPVGTCRYWHRSLNPRKLIEVKFSHLSRNMTMQRTMKLYRLPETPKTAGLRPMETKDIPVVHQLLTRYLKQFHLTPVMSQEEVEHWFYPQENIIDTFVVENANGEVTDFLSFYTLPSTIMNHPTHKSLKAAYSFYNVHTQTPLLDLMSDALVLAKMKGFDVFNALDLMENKTFLEKLKFGIGDGNLQYYLYNWKCPSMGAEKVGLVLQ
notes: Purified NMT1 protein of the GST pull-down with Src; source: purified
